Target: Human Flag-tagged RER1 TP37_38AA mutant (human)
Assay: co-IP; SH-SY5Y and U251 cells co-transfected with Flag-tagged RER1 (wild type or mutant) and NEDD4-2-HA, with or without Tg (0.5 uM); gentle RIPA lysis buffer; anti-Flag or anti-HA on Protein A/G magnetic beads, 4°C overnight; immunoblot

Chain of Human Flag-tagged RER1 TP37_38AA mutant (human) (P78508 whole entry, change not shown): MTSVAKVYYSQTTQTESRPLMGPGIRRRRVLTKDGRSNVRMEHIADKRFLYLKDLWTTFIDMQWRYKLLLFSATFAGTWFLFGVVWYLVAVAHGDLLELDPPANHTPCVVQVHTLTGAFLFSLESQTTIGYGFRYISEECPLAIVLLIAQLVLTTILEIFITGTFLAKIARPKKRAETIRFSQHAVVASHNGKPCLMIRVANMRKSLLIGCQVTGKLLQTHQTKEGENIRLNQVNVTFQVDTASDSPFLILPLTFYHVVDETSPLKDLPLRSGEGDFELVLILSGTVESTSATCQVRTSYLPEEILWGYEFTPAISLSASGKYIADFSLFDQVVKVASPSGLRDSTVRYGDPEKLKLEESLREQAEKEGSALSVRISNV

interaction in percent of wild-type RER1 (co-IP densitometry): 30 to 40%
Substance: Human HA-tagged NEDD4-2 (from UniProt Q96PU5-5 1-955) (natural protein)
